Legend:
IL-3 receptor (human) = IL-3 receptor (human) (UniProt P26951); assay: cell-based or functional assay
IL-3 receptor [1] = target: T1, IL-3 receptor (human, UniProt P26951 19-378; P32927 17-897); assay: receptor binding assay on cells
T1 construct: whole, on cells; also called ILK3 receptor

IL-3 receptor [2] = target: T1, IL-3 receptor; assay: cell-based or functional assay
IL-3 receptor [3] = target: T1, IL-3 receptor; assay: competition with radiolabeled hIL-3 for binding to cells, relative to reference IL-3
Protocol: (§1) An ILK3 receptor binding assay was performed with purified recombinant hIL-3 (see EPA 0390252) was radiolabeled with the Bolton-Hunter reagent (as described by Budel et al., Blood 74 (1989) 565–571). The specific activity was estimated at 80,000 cpm/ng of IL-3. As target, either donor leukocytes, patient AML cells, or MV4-11 (ATCC: CRL-9591) cells were used. Cells were washed in Hanks Balanced Salt solution and suspended in Alpha-MEM plus 1% BSA. Usually, 3–10×10⁶ cells were incubated with 200–300 pM of radiolabeled IL-3 and various concentrations of unlabeled mutant protein in a total volume of 200 µl for 1 hr at 37° C. Cell-bound labeled IL-3 was centrifuged for 10 min at 1000×g at 4° C. through a 0.5 ml cushion of bovine calf serum in an Eppendorf tube (Budel et al., 1989). The tubes were frozen in liquid nitrogen and the tips cut off for counting in a Packard gamma counter. Competition binding was determined relative to the reference preparation. […] Radiolabeled IL-3 binding to patient AML blasts is competed with unlabeled IL-3 protein (reference preparation). Due to the low number of receptors (less than 200) on the target cells, data for competition mostly varied by one order of magnitude.

IL-3 receptor [4] = target: T1, IL-3 receptor; assay: competition with radiolabeled hIL-3 for binding to cells, relative to reference IL-3; done once
Protocol: as §1
[1]Deletion between amino acid numbers of mature human IL-3 is indicated. Substitutions of amino acids are indicated in single letter code. [2]Median specific biological activity is expressed relative to the reference IL-3 preparations. [3]Antagonistic potential is represented as relative receptor binding activity divided by relative biological activity. The range is presented between brackets. […] Muteins were diluted in medium and tested for biological activity. Receptor binding experiments were performed once. †Mutein protein concentration was too low for densitometric scanning and was estimated from gels and western blots. ¤Mutant proteins were expressed in Bacillus and lack a leader polypeptide sequence.

T1 sequence (P26951 19-378, chain 1 of 2): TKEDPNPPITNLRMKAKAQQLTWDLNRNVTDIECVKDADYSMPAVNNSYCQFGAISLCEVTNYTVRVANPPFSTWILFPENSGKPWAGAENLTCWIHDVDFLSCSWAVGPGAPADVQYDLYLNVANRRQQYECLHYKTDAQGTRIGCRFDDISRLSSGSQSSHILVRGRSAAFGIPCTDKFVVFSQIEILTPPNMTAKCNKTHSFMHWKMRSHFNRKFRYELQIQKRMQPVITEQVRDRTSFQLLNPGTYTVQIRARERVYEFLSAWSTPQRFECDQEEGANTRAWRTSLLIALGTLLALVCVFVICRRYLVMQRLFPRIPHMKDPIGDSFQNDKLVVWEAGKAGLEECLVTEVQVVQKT
T1 sequence (P32927 17-897, chain 2 of 2): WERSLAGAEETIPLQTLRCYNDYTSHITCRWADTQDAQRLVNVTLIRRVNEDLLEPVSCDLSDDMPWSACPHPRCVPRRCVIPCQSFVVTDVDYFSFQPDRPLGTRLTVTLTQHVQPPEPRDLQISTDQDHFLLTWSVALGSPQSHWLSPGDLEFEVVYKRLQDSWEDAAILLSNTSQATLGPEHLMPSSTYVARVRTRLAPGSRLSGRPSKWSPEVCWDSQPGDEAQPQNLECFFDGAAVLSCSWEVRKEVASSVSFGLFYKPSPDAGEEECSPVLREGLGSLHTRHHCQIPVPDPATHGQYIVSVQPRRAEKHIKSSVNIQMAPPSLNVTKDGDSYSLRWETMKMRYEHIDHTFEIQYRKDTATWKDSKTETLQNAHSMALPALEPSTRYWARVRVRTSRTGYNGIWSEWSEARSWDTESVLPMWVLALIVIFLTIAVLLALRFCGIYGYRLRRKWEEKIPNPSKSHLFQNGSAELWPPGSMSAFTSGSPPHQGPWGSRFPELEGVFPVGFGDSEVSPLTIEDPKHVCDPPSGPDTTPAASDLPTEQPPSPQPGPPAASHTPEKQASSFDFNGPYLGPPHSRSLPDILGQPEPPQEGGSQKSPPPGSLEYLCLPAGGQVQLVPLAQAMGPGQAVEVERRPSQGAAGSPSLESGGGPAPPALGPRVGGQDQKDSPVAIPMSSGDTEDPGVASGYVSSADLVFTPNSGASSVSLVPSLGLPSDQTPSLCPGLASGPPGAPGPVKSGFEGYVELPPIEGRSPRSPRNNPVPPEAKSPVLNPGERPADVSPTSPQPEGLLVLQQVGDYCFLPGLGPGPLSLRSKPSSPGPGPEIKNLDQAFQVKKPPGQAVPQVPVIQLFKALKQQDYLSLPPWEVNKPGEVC
Sequence of IL-3 receptor (human) (P26951 19-378, chain 1 of 2): as the sequence (P26951 19-378, chain 1 of 2) above
Sequence of IL-3 receptor (human) (P32927 17-897, chain 2 of 2, further chain): as the sequence (P32927 17-897, chain 2 of 2) above

| Molecule | REL. SPEC. BIOLOGICAL ACTIVITY (DNA synthesis of AML193 cells) (relative to reference IL-3) (IL-3 receptor (human)) | binding activity retained (IL-3 receptor [1]) | REL. SPEC. BIOLOGICAL ACTIVITY (DNA synthesis of AML193 cells) (IL-3 receptor [2]) | relative antagonistic potential (relative receptor binding activity / relative biological activity) (IL-3 receptor [3]) | relative antagonistic potential (relative receptor binding activity / relative biological activity) (IL-3 receptor [4]) |
| --- | --- | --- | --- | --- | --- |
| hIL-3 C-terminal deletion mutant 1455 (lacking amino acids 130-133) (ligand) APMTQTTPLKTSWVNCSNMIDEIITHLKQPPLPLLDFNNLNGEDQDILMENNLRRPNLEAFNRAVKSLQNASAIESILKNLLPCLPLATAAPTRHPIHIKDGDWNEFRRKLTFYLKTLENAQAQQTTLS |  | 100 percent |  |  |  |
| hIL-3 deletion mutant 932 (deletion 1-14) (ligand, not shown: heterologous N-terminal leader of the E. coli fusion (pGB/IL-336: 12 aa; pGB/IL-339: 15 aa)) NCSNMIDEIITHLKQPPLPLLDFNNLNGEDQDILMENNLRRPNLEAFNRAVKSLQNASAIESILKNLLPCLPLATAAPTRHPIHIKDGDWNEFRRKLTFYLKTLENAQAQQTTLSLAIF |  | 100 percent | 0.71 relative to reference IL-3 | 2.8 |  |
| hIL-3 deletion mutant 939 (deletion 120-130) (ligand, not shown: heterologous N-terminal leader of the E. coli fusion (pGB/IL-336: 12 aa; pGB/IL-339: 15 aa)) APMTQTTPLKTSWVNCSNMIDEIITHLKQPPLPLLDFNNLNGEDQDILMENNLRRPNLEAFNRAVKSLQNASAIESILKNLLPCLPLATAAPTRHPIHIKDGDWNEFRRKLTFYLKTLEAIF |  | 100 percent | 2 relative to reference IL-3 | 1.8 |  |
| hIL-3 double deletion mutant 9329 (deletions 1-14/120-130) (ligand, not shown: heterologous N-terminal leader of the E. coli fusion, rebuilt with oligonucleotides 1424/1425) NCSNMIDEIITHLKQPPLPLLDFNNLNGEDQDILMENNLRRPNLEAFNRAVKSLQNASAIESILKNLLPCLPLATAAPTRHPIHIKDGDWNEFRRKLTFYLKTLEAIF |  | 100 percent | 0.4 relative to reference IL-3 | 2 |  |

Other lines, results leading:

| REL. SPEC. BIOLOGICAL ACTIVITY (DNA synthesis of AML193 cells) (relative to reference IL-3) (IL-3 receptor (human)) | binding activity retained (IL-3 receptor [1]) | REL. SPEC. BIOLOGICAL ACTIVITY (DNA synthesis of AML193 cells) (IL-3 receptor [2]) | relative antagonistic potential (relative receptor binding activity / relative biological activity) (IL-3 receptor [3]) | relative antagonistic potential (relative receptor binding activity / relative biological activity) (IL-3 receptor [4]) | Molecule |
| --- | --- | --- | --- | --- | --- |
| 0.0017 |  |  |  |  | hIL-3 substitution mutant 1489 (Arg94→Pro94) (from UniProt P08700 20-152) (ligand) |
|  |  | 0.0086 relative to reference IL-3 |  | 3 | hIL-3 substitution mutant 1487B (Glu75→Arg75) (ligand, also called 75E → R; not shown: heterologous N-terminal leader of the E. coli fusion (pGB/IL-336: 12 aa; pGB/IL-339: 15 aa)) APMTQTTPLKTSWVNCSNMIDEIITHLKQPPLPLLDFNNLNGEDQDILMENNLRRPNLEAFNRAVKSLQNASAIRSILKNLLPCLPLATAAPTRHPIHIKDGDWNEFRRKLTFYLKTLENAQAQQTTLSLAIF |
|  |  | 0.0022 relative to reference IL-3 |  | 5 | hIL-3 substitution mutant 1490 (His98Lys100Asp101→Glu98Asp100Gln101) (ligand, also called 98HIKD → EIKQ; not shown: heterologous N-terminal leader of the E. coli fusion (pGB/IL-336: 12 aa; pGB/IL-339: 15 aa)) APMTQTTPLKTSWVNCSNMIDEIITHLKQPPLPLLDFNNLNGEDQDILMENNLRRPNLEAFNRAVKSLQNASAIESILKNLLPCLPLATAAPTRHPIEIDQGDWNEFRRKLTFYLKTLENAQAQQTTLSLAIF |
|  |  | 0.00032 relative to reference IL-3 |  | 6 | hIL-3 substitution mutant 1491 (Glu106→Lys106) (ligand, also called 106E → K; not shown: heterologous N-terminal leader of the E. coli fusion (pGB/IL-336: 12 aa; pGB/IL-339: 15 aa)) APMTQTTPLKTSWVNCSNMIDEIITHLKQPPLPLLDFNNLNGEDQDILMENNLRRPNLEAFNRAVKSLQNASAIESILKNLLPCLPLATAAPTRHPIHIKDGDWNKFRRKLTFYLKTLENAQAQQTTLSLAIF |
